Laboratory results as given in PMC7749410.

Key:
[1] = target: cc-del1 (cc-C99 19-99) (Saccharomyces cerevisiae | human); experiment: native gel or EMSA
[2] = target: cc-del7 (cc-C99 25-99) (Saccharomyces cerevisiae | human); experiment: native gel or EMSA
[3] = target: cc-del7 G29C (Saccharomyces cerevisiae | human); experiment: cross-linking
[4] = target: cc-del2 G29C (Saccharomyces cerevisiae | human); experiment: cross-linking
[5] = target: cc-del7 G37C (Saccharomyces cerevisiae | human); experiment: cross-linking
[6] = target: cc-del6 G29C (Saccharomyces cerevisiae | human); experiment: cross-linking
[7] = target: cc-del0 G29C (Saccharomyces cerevisiae | human); experiment: cross-linking
[8] = target: cc-del8 (cc-C99 26-99) (Saccharomyces cerevisiae | human); experiment: native gel or EMSA
[9] = target: cc-del0 (cc-C99 18-99) (Saccharomyces cerevisiae | human); experiment: native gel or EMSA
[10] = target: cc-del9 G29C (Saccharomyces cerevisiae | human); experiment: cross-linking
[11] = target: cc-del4 (cc-C99 22-99) (Saccharomyces cerevisiae | human); experiment: native gel or EMSA
[12] = target: cc-del2 (cc-C99 20-99) (Saccharomyces cerevisiae | human); experiment: native gel or EMSA
[13] = target: cc-del3 G29C (Saccharomyces cerevisiae | human); experiment: cross-linking
[14] = target: cc-del3 (cc-C99 21-99) (Saccharomyces cerevisiae | human); experiment: native gel or EMSA
[15] = target: cc-del5 (cc-C99 23-99) (Saccharomyces cerevisiae | human); experiment: native gel or EMSA
[16] = target: cc-del4 G37C (Saccharomyces cerevisiae | human); experiment: cross-linking
[17] = target: cc-del6 (cc-C99 24-99) (Saccharomyces cerevisiae | human); experiment: native gel or EMSA
[18] = target: cc-del9 (cc-C99 27-99) (Saccharomyces cerevisiae | human); experiment: native gel or EMSA

Question: With cc-del1 (cc-C99 19-99) as the substance, how does the stoichiometry N [1] read?
Answer: Its stoichiometry N is 2.

Question: How did the stoichiometry N [2] turn out when cc-del7 (cc-C99 25-99) was run?
Answer: The stoichiometry N was 2.

Question: For cc-del7 G29C, which stoichiometry N [3] is on record?
Answer: Its stoichiometry N is 2.

Question: With cc-del2 G29C as the substance, how does the stoichiometry N [4] read?
Answer: The stoichiometry N was 2.

Question: Which stoichiometry N [5] does the source give for cc-del7 G37C here?
Answer: The stoichiometry N was 2.

Question: cc-del6 G29C was tested. Which stoichiometry N [6] did it give?
Answer: Its stoichiometry N is 2.

Question: cc-del0 G29C was tested. Which stoichiometry N [7] did it give?
Answer: Its stoichiometry N is 2.

Question: How did the stoichiometry N [8] turn out when cc-del8 (cc-C99 26-99) was run?
Answer: Its stoichiometry N is 2.

Question: For cc-del0 (cc-C99 18-99), which stoichiometry N [9] is on record?
Answer: The stoichiometry N was 2.

Question: How did the stoichiometry N [10] turn out when cc-del9 G29C was run?
Answer: Its stoichiometry N is 2.

Question: cc-del4 (cc-C99 22-99) was tested. Which stoichiometry N [11] did it give?
Answer: The stoichiometry N was 2.

Question: Which stoichiometry N [12] does the source give for cc-del2 (cc-C99 20-99) here?
Answer: The stoichiometry N was 2.

Question: How did the stoichiometry N [13] turn out when cc-del3 G29C was run?
Answer: The stoichiometry N was 2.

Question: cc-del3 (cc-C99 21-99) was tested. Which stoichiometry N [14] did it give?
Answer: The stoichiometry N was 2.

Question: How did the stoichiometry N [15] turn out when cc-del5 (cc-C99 23-99) was run?
Answer: The stoichiometry N was 2.

Question: How did the stoichiometry N [16] turn out when cc-del4 G37C was run?
Answer: The stoichiometry N was 2.

Question: Which stoichiometry N [17] does the source give for cc-del6 (cc-C99 24-99) here?
Answer: The stoichiometry N was 2.

Question: How did the stoichiometry N [18] turn out when cc-del9 (cc-C99 27-99) was run?
Answer: The stoichiometry N was 2.
